Results: patent US20210032299A1 (Eli Lilly, published 2021)
Starred links: 1 amine or outer side, 2 acyl side, 3 side chain; linkers in the order of their positions; H or OH if unused. Non-standard residues stand in square brackets, D forms with d. Groups on a side chain read outwards from the residue. No end group written: not given here. *: point of attachment. C20 diacid = O=C(O)CCCCCCCCCCCCCCCCCCC(=O)*; γGlu = O=C(O)[C@H](CCC(=O)[*:2])N[*:1]; 4Pal = N[C@@H](Cc1ccncc1)C(=O)O; αMeL = CC(C)C[C@](C)(N)C(=O)O; AEEA = NCCOCCOCC(=O)O; Aib = CC(C)(N)C(=O)O

T1: human glucose-dependent insulinotropic peptide receptor (human, UniProt P48546 22-466)
T1 sequence (looked up): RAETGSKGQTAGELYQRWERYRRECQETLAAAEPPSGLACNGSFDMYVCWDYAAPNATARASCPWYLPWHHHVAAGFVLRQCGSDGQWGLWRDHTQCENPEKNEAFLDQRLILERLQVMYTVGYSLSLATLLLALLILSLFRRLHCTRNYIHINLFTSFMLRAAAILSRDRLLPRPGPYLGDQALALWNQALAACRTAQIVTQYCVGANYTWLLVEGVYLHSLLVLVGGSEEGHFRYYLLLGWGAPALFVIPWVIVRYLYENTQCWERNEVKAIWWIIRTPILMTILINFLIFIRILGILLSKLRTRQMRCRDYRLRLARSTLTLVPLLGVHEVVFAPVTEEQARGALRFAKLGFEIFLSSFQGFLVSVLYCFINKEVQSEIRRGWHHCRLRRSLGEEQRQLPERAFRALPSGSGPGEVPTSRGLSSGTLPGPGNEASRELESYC

B1: Example 70 (peptide)
peptide: Y[Aib]EGTFISDYSI[αMeL]LDKK([AEEA-AEEA-γGlu-C20 diacid])HQ[Aib]DFVE[4Pal]LLATGPSSGAPPPS-NH2
modifications: N-terminus assumed
SMILES: CC[C@H](C)[C@H](NC(=O)[C@H](Cc1ccccc1)NC(=O)[C@@H](NC(=O)CNC(=O)[C@H](CCC(=O)O)NC(=O)C(C)(C)NC(=O)[C@@H](N)Cc1ccc(O)cc1)[C@@H](C)O)C(=O)N[C@@H](CO)C(=O)N[C@@H](CC(=O)O)C(=O)N[C@@H](Cc1ccc(O)cc1)C(=O)N[C@@H](CO)C(=O)N[C@H](C(=O)N[C@@](C)(CC(C)C)C(=O)N[C@@H](CC(C)C)C(=O)N[C@@H](CC(=O)O)C(=O)N[C@@H](CCCCN)C(=O)N[C@@H](CCCCNC(=O)COCCOCCNC(=O)COCCOCCNC(=O)CC[C@H](NC(=O)CCCCCCCCCCCCCCCCCCC(=O)O)C(=O)O)C(=O)N[C@@H](Cc1c[nH]cn1)C(=O)N[C@@H](CCC(N)=O)C(=O)NC(C)(C)C(=O)N[C@@H](CC(=O)O)C(=O)N[C@@H](Cc1ccccc1)C(=O)N[C@H](C(=O)N[C@@H](CCC(=O)O)C(=O)N[C@@H](Cc1ccncc1)C(=O)N[C@@H](CC(C)C)C(=O)N[C@@H](CC(C)C)C(=O)N[C@@H](C)C(=O)N[C@H](C(=O)NCC(=O)N1CCC[C@H]1C(=O)N[C@@H](CO)C(=O)N[C@@H](CO)C(=O)NCC(=O)N[C@@H](C)C(=O)N1CCC[C@H]1C(=O)N1CCC[C@H]1C(=O)N1CCC[C@H]1C(=O)N[C@@H](CO)C(N)=O)[C@@H](C)O)C(C)C)[C@@H](C)CC
B2: Example 68 (peptide)
peptide: Y[Aib]EGTFISDYSI[αMeL]LDKK([AEEA-AEEA-γGlu-C20 diacid])HQ[Aib]DFVEYLLEAGPSSGAPPPS-NH2
modifications: N-terminus assumed
SMILES: CC[C@H](C)[C@H](NC(=O)[C@H](Cc1ccccc1)NC(=O)[C@@H](NC(=O)CNC(=O)[C@H](CCC(=O)O)NC(=O)C(C)(C)NC(=O)[C@@H](N)Cc1ccc(O)cc1)[C@@H](C)O)C(=O)N[C@@H](CO)C(=O)N[C@@H](CC(=O)O)C(=O)N[C@@H](Cc1ccc(O)cc1)C(=O)N[C@@H](CO)C(=O)N[C@H](C(=O)N[C@@](C)(CC(C)C)C(=O)N[C@@H](CC(C)C)C(=O)N[C@@H](CC(=O)O)C(=O)N[C@@H](CCCCN)C(=O)N[C@@H](CCCCNC(=O)COCCOCCNC(=O)COCCOCCNC(=O)CC[C@H](NC(=O)CCCCCCCCCCCCCCCCCCC(=O)O)C(=O)O)C(=O)N[C@@H](Cc1c[nH]cn1)C(=O)N[C@@H](CCC(N)=O)C(=O)NC(C)(C)C(=O)N[C@@H](CC(=O)O)C(=O)N[C@@H](Cc1ccccc1)C(=O)N[C@H](C(=O)N[C@@H](CCC(=O)O)C(=O)N[C@@H](Cc1ccc(O)cc1)C(=O)N[C@@H](CC(C)C)C(=O)N[C@@H](CC(C)C)C(=O)N[C@@H](CCC(=O)O)C(=O)N[C@@H](C)C(=O)NCC(=O)N1CCC[C@H]1C(=O)N[C@@H](CO)C(=O)N[C@@H](CO)C(=O)NCC(=O)N[C@@H](C)C(=O)N1CCC[C@H]1C(=O)N1CCC[C@H]1C(=O)N1CCC[C@H]1C(=O)N[C@@H](CO)C(N)=O)C(C)C)[C@@H](C)CC
B3: Example 66 (peptide)
peptide: Y[Aib]EGTFISDYSI[αMeL]LDKK([AEEA-AEEA-γGlu-C20 diacid])HQ[Aib]DFVEYLLETGPSSGAPPPS-NH2
modifications: N-terminus assumed
SMILES: CC[C@H](C)[C@H](NC(=O)[C@H](Cc1ccccc1)NC(=O)[C@@H](NC(=O)CNC(=O)[C@H](CCC(=O)O)NC(=O)C(C)(C)NC(=O)[C@@H](N)Cc1ccc(O)cc1)[C@@H](C)O)C(=O)N[C@@H](CO)C(=O)N[C@@H](CC(=O)O)C(=O)N[C@@H](Cc1ccc(O)cc1)C(=O)N[C@@H](CO)C(=O)N[C@H](C(=O)N[C@@](C)(CC(C)C)C(=O)N[C@@H](CC(C)C)C(=O)N[C@@H](CC(=O)O)C(=O)N[C@@H](CCCCN)C(=O)N[C@@H](CCCCNC(=O)COCCOCCNC(=O)COCCOCCNC(=O)CC[C@H](NC(=O)CCCCCCCCCCCCCCCCCCC(=O)O)C(=O)O)C(=O)N[C@@H](Cc1c[nH]cn1)C(=O)N[C@@H](CCC(N)=O)C(=O)NC(C)(C)C(=O)N[C@@H](CC(=O)O)C(=O)N[C@@H](Cc1ccccc1)C(=O)N[C@H](C(=O)N[C@@H](CCC(=O)O)C(=O)N[C@@H](Cc1ccc(O)cc1)C(=O)N[C@@H](CC(C)C)C(=O)N[C@@H](CC(C)C)C(=O)N[C@@H](CCC(=O)O)C(=O)N[C@H](C(=O)NCC(=O)N1CCC[C@H]1C(=O)N[C@@H](CO)C(=O)N[C@@H](CO)C(=O)NCC(=O)N[C@@H](C)C(=O)N1CCC[C@H]1C(=O)N1CCC[C@H]1C(=O)N1CCC[C@H]1C(=O)N[C@@H](CO)C(N)=O)[C@@H](C)O)C(C)C)[C@@H](C)CC
B4: Example 69 (peptide)
peptide: Y[Aib]EGTFISDYSI[αMeL]LDKK([AEEA-AEEA-γGlu-C20 diacid])HQ[Aib]DFVEYLLEGGPSSGAPPPS-NH2
modifications: N-terminus assumed
SMILES: CC[C@H](C)[C@H](NC(=O)[C@H](Cc1ccccc1)NC(=O)[C@@H](NC(=O)CNC(=O)[C@H](CCC(=O)O)NC(=O)C(C)(C)NC(=O)[C@@H](N)Cc1ccc(O)cc1)[C@@H](C)O)C(=O)N[C@@H](CO)C(=O)N[C@@H](CC(=O)O)C(=O)N[C@@H](Cc1ccc(O)cc1)C(=O)N[C@@H](CO)C(=O)N[C@H](C(=O)N[C@@](C)(CC(C)C)C(=O)N[C@@H](CC(C)C)C(=O)N[C@@H](CC(=O)O)C(=O)N[C@@H](CCCCN)C(=O)N[C@@H](CCCCNC(=O)COCCOCCNC(=O)COCCOCCNC(=O)CC[C@H](NC(=O)CCCCCCCCCCCCCCCCCCC(=O)O)C(=O)O)C(=O)N[C@@H](Cc1c[nH]cn1)C(=O)N[C@@H](CCC(N)=O)C(=O)NC(C)(C)C(=O)N[C@@H](CC(=O)O)C(=O)N[C@@H](Cc1ccccc1)C(=O)N[C@H](C(=O)N[C@@H](CCC(=O)O)C(=O)N[C@@H](Cc1ccc(O)cc1)C(=O)N[C@@H](CC(C)C)C(=O)N[C@@H](CC(C)C)C(=O)N[C@@H](CCC(=O)O)C(=O)NCC(=O)NCC(=O)N1CCC[C@H]1C(=O)N[C@@H](CO)C(=O)N[C@@H](CO)C(=O)NCC(=O)N[C@@H](C)C(=O)N1CCC[C@H]1C(=O)N1CCC[C@H]1C(=O)N1CCC[C@H]1C(=O)N[C@@H](CO)C(N)=O)C(C)C)[C@@H](C)CC
B5: Example 67 (peptide)
peptide: Y[Aib]EGTFISDYSI[αMeL]LDKK([AEEA-AEEA-γGlu-C20 diacid])HQ[Aib]DFVEYLLEQGPSSGAPPPS-NH2
modifications: N-terminus assumed
SMILES: CC[C@H](C)[C@H](NC(=O)[C@H](Cc1ccccc1)NC(=O)[C@@H](NC(=O)CNC(=O)[C@H](CCC(=O)O)NC(=O)C(C)(C)NC(=O)[C@@H](N)Cc1ccc(O)cc1)[C@@H](C)O)C(=O)N[C@@H](CO)C(=O)N[C@@H](CC(=O)O)C(=O)N[C@@H](Cc1ccc(O)cc1)C(=O)N[C@@H](CO)C(=O)N[C@H](C(=O)N[C@@](C)(CC(C)C)C(=O)N[C@@H](CC(C)C)C(=O)N[C@@H](CC(=O)O)C(=O)N[C@@H](CCCCN)C(=O)N[C@@H](CCCCNC(=O)COCCOCCNC(=O)COCCOCCNC(=O)CC[C@H](NC(=O)CCCCCCCCCCCCCCCCCCC(=O)O)C(=O)O)C(=O)N[C@@H](Cc1c[nH]cn1)C(=O)N[C@@H](CCC(N)=O)C(=O)NC(C)(C)C(=O)N[C@@H](CC(=O)O)C(=O)N[C@@H](Cc1ccccc1)C(=O)N[C@H](C(=O)N[C@@H](CCC(=O)O)C(=O)N[C@@H](Cc1ccc(O)cc1)C(=O)N[C@@H](CC(C)C)C(=O)N[C@@H](CC(C)C)C(=O)N[C@@H](CCC(=O)O)C(=O)N[C@@H](CCC(N)=O)C(=O)NCC(=O)N1CCC[C@H]1C(=O)N[C@@H](CO)C(=O)N[C@@H](CO)C(=O)NCC(=O)N[C@@H](C)C(=O)N1CCC[C@H]1C(=O)N1CCC[C@H]1C(=O)N1CCC[C@H]1C(=O)N[C@@H](CO)C(N)=O)C(C)C)[C@@H](C)CC
B6: Example 65 (peptide)
peptide: Y[Aib]EGTFISDYSI[αMeL]LDKK([AEEA-AEEA-γGlu-C20 diacid])HQ[Aib]EFVEYLLEAGPSSGAPPPS-NH2
modifications: N-terminus assumed
SMILES: CC[C@H](C)[C@H](NC(=O)[C@H](Cc1ccccc1)NC(=O)[C@@H](NC(=O)CNC(=O)[C@H](CCC(=O)O)NC(=O)C(C)(C)NC(=O)[C@@H](N)Cc1ccc(O)cc1)[C@@H](C)O)C(=O)N[C@@H](CO)C(=O)N[C@@H](CC(=O)O)C(=O)N[C@@H](Cc1ccc(O)cc1)C(=O)N[C@@H](CO)C(=O)N[C@H](C(=O)N[C@@](C)(CC(C)C)C(=O)N[C@@H](CC(C)C)C(=O)N[C@@H](CC(=O)O)C(=O)N[C@@H](CCCCN)C(=O)N[C@@H](CCCCNC(=O)COCCOCCNC(=O)COCCOCCNC(=O)CC[C@H](NC(=O)CCCCCCCCCCCCCCCCCCC(=O)O)C(=O)O)C(=O)N[C@@H](Cc1c[nH]cn1)C(=O)N[C@@H](CCC(N)=O)C(=O)NC(C)(C)C(=O)N[C@@H](CCC(=O)O)C(=O)N[C@@H](Cc1ccccc1)C(=O)N[C@H](C(=O)N[C@@H](CCC(=O)O)C(=O)N[C@@H](Cc1ccc(O)cc1)C(=O)N[C@@H](CC(C)C)C(=O)N[C@@H](CC(C)C)C(=O)N[C@@H](CCC(=O)O)C(=O)N[C@@H](C)C(=O)NCC(=O)N1CCC[C@H]1C(=O)N[C@@H](CO)C(=O)N[C@@H](CO)C(=O)NCC(=O)N[C@@H](C)C(=O)N1CCC[C@H]1C(=O)N1CCC[C@H]1C(=O)N1CCC[C@H]1C(=O)N[C@@H](CO)C(N)=O)C(C)C)[C@@H](C)CC

These binders were tested against human glucagon receptor (human, UniProt P47871 26-477) (assay: cell-based or functional assay).
human glucagon receptor, sequence (P47871 26-477): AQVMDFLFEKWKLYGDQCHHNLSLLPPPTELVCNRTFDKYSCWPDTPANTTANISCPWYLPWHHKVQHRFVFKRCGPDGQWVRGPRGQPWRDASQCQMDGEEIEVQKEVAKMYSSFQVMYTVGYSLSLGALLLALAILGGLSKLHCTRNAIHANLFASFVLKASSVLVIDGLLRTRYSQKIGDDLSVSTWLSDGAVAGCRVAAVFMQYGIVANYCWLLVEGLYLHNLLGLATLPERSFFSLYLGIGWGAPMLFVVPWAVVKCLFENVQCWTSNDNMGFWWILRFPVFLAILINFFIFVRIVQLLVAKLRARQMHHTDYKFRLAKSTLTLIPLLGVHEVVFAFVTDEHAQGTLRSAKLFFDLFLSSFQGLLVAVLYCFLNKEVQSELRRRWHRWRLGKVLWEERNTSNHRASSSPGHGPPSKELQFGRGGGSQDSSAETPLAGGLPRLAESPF
With B1 the “hGcgR cAMP Rel EC50” value was 3560 nM.
With B2 the “hGcgR cAMP Rel EC50” value was 3030 nM.
B3 was tested, and the “hGcgR cAMP Rel EC50” value was over 5000 nM.
In the case of B4, the “hGcgR cAMP Rel EC50” value is reported as 803 nM.
For B5, the “hGcgR cAMP Rel EC50” value was over 5000 nM.
With B6 the “hGcgR cAMP Rel EC50” value was 850 nM.

The binders below were run against T1, human glucose-dependent insulinotropic … (assay: cell-based or functional assay).
B1 was tested, and the “hGIPR cAMP Rel EC50” value was 0.0254 nM.
With B2 the “hGIPR cAMP Rel EC50” value was 0.0768 nM.
With B3 the “hGIPR cAMP Rel EC50” value was 0.0786 nM.
For B4, the “hGIPR cAMP Rel EC50” value was 0.0302 nM.
For B5, the “hGIPR cAMP Rel EC50” value was 0.0627 nM.
In the case of B6, the “hGIPR cAMP Rel EC50” value is reported as 0.0346 nM.

What follows are binders tested against human GLP-1 receptor (human, UniProt P43220 24-463) (assay: cell-based or functional assay).
In the case of B1, the “hGLP1R cAMP Rel EC50” value is reported as over 5000 nM.
B2 was tested, and the “hGLP1R cAMP Rel EC50” value was over 5000 nM.
For B3, the “hGLP1R cAMP Rel EC50” value was over 5000 nM.
For B4, the “hGLP1R cAMP Rel EC50” value was over 5000 nM.
For B5, the “hGLP1R cAMP Rel EC50” value was over 5000 nM.
B6 was tested, and the “hGLP1R cAMP Rel EC50” value was over 5000 nM.
